{
  "source": "patent US20240307512A1",
  "key": {"[1]": {"target": "SARS-COV-2 Spike Omicron BA.2 (on pVSV-Luc-SARS-COV-2-S pseudovirus) (SARS-COV-2) (UniProt P0DTC2)"}, "[2]": {"target": "SARS-COV-2 Spike Omicron BA.1 (on pVSV-Luc-SARS-COV-2-S pseudovirus) (SARS-COV-2) (UniProt P0DTC2)"}},
  "data": [
    {"substance": "ACE2 v2.4 (615)-Fc (IgG) (from UniProt Q9BYF1) (Fc fusion)", "values": [
      {"measurement": "IC50 (read off the curve)", "setting": "[1]", "result": 0.04, "unit": "nM"},
      {"measurement": "IC50 (read off the curve)", "setting": "[2]", "result": 0.02, "unit": "nM"}
    ]}
  ]
}
